From the nanobody polyreactivity screen of Harvey et al. (2022)

Assay: yeast display, Sf9 membrane polyspecificity reagent, FACS + sequencing; frameworks hold sequencing errors
Outline: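 A nanobody's polyreactivity label depends on the gate it was sorted from. Yeast display cells were stained with 10% biotinylated, detergent-solubilized Sf9 membrane reagent for 1 hour at 4 °C, enriched on streptavidin microbeads and sorted by FACS. The low and high (top ~1%) gates were set on anti-HA fluorescence for expression and streptavidin fluorescence for reagent binding.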

QVQLVESGGGLVQAGGSLRLSCAASGFIFRSYAMGWYRQAPGKERELVAAITRSGGSTYYADSVKGRFTISRDNAKNTDYLQMNSLKPEDTAVYYCATRRYWYYILDYWGQGTQVTVSS
polyreactivity (PSR sort gate): high polyreactivity

QVQLVESGGGLVQAGGSLRLSCAASGFIFRSYVMGWYRQAPGKERELVAAITRSGVRTYYADSVKGRFTISRDNAKNTVYLQMNSLKPEDTAVYYCNADFSATRYWPGNYWGQGTQVTVSS
polyreactivity (PSR sort gate): high polyreactivity

QVQLVESGGGLVQAGGSLRLSCAASGFIFRTNAMGWYRQAPGKERELVAAITSSGGTTFYADSVKGRFTISRDNAKNTVYLQMNSLKPEDTAVYYCAAAYKHRTRSWTYGYWGQGTQVTVSS
polyreactivity (PSR sort gate): high polyreactivity

QVQLVESGGGLVQAGGSLRLSCAASGFIFRVNAMGWSRQEPGKERELVAAISASGGTTYYADSVKGRFTISRDNAKNTVYLQMNSQKPEDTAVYYCIAPSRTRYDFWGQGTQVTVSW
polyreactivity (PSR sort gate): low polyreactivity

QVQLVESGGGLVQAGGSLRLSCAASGFIFRVNAMGWYRPAPGKERELVAAITKSGGSTYYADSVKGRFTISRDNAKNTVYLQMNSLKPEDTAVYYCNVVWYEGYGHWGQGTQVTVSS
polyreactivity (PSR sort gate): low polyreactivity

QVQLVESGGGLVQAGGSLRLSCAASGFIFRWNAMGWYRQAPGKVRELVAAISNSDGSTYYADSVKGRFTISRDNAKNTVYVQMNSLKPEDTAVYYCYKLYRGGWYDYWGQGTQVTVSS
polyreactivity (PSR sort gate): low polyreactivity

QVQLVESGGGLVQAGGSLRLSCAASGFIFRWYAMGWYRQAPGKERELVAAITWRGGSTYADSVKGRFTISRDNAKNTVYLQMNSLKPEDTAVCYCAAETHRRYDYWGQGTQVTVSS
polyreactivity (PSR sort gate): high polyreactivity

QVQLVESGGGLVQAGGSLRLSCAASGFIFRYNAMGWYRQAPGKERELVAAITSNGGRTYYADSVKGRFTISRDNAKNTVYLQMNSLKPEDTAVYYCNALGRTYPAYQDDYWGQGTQVTVSS
polyreactivity (PSR sort gate): high polyreactivity

QVQLVESGGGLVQAGGSLRLSCAASGFIFRYYAKGWYRQAPGKERELVAAISSSGGSTYYADSVKGRFTISRDNAQKTVYLQMNSLKPEDTAVYYCNAYNYGYIGYGYNYWGQGTQVTVSS
polyreactivity (PSR sort gate): high polyreactivity

QVQLVESGGGLVQAGGSLRLSCAASGFIFRYYAMGLYRHAPGKERELVASISSGGSTDYADSVKGRFTISRDNAKNTVYLQMNSLKPEDTAVYYCAAGYRSLSLHVGSYRYYYRGQGTQVTVSS
polyreactivity (PSR sort gate): high polyreactivity

QVQLVESGGGLVQAGGSLRLSCAASGFIFRYYAMGWARQAPAKERELVAAISWSGTRTFYADSVKARFTISRDNAKNTVYLQMNSLKPEDTAVYYCAAETTGYDSYIQYEYWGQGTQVTVSS
polyreactivity (PSR sort gate): high polyreactivity

QVQLVESGGGLVQAGGSLRLSCAASGFIFRYYAMGWLRQAPGKERELVAAISWSGGNTYYADSVKGRFTISRDNAKNTVYLQMNSLKPEDTAVYYCAARVARISVPYDYWGQGTQVTVSS
polyreactivity (PSR sort gate): low polyreactivity

QVQLVESGGGLVQAGGSLRLSCAASGFIFRYYAMGWYIQAPGKERELVAAITISGTRTYYADSVKGRFTISRDNAKNTVYLQMNSLKPEDTAVYYCAAYTSVRPKLDYWGQGTQVTVSS
polyreactivity (PSR sort gate): high polyreactivity

QVQLVESGGGLVQAGGSLRLSCAASGFIFRYYAMGWYRQAPGKEREFVAGITGTGGSTYYADSVKGRFTISRDNAKNTVYLQMNSLKPEDTAVYYCAADLWYFSSRVRYGYWGQGTQVTVSS
polyreactivity (PSR sort gate): high polyreactivity

QVQLVESGGGLVQAGGSLRLSCAASGFIFRYYAMGWYRQAPGKEREFVAVISSGGGRTYYADSVKGRFTISRDNAKNTVYLQMNSLKPEDTAVYYCAKGYRYWVRIVRSFTSYDYWGQGTQVTVSS
polyreactivity (PSR sort gate): high polyreactivity

QVQLVESGGGLVQAGGSLRLSCAASGFIFRYYAMGWYRQAPGKERELDAAISGSGGSTYYADSVKGRFTISRDNAKNTVYLQMNSLKPEDTAVYYCAKSYGSHRKIRTSFGYWGQGTQVTVSS
polyreactivity (PSR sort gate): high polyreactivity

QVQLVESGGGLVQAGGSLRLSCAASGFIFRYYAMGWYRQAPGKERELVAAIRRGGSTYYADSVKGRFTISRDNAKNTVYLQMNSLKPEDTAVYYCAASFWGIAMGYWGQGTQVTVSS
polyreactivity (PSR sort gate): high polyreactivity
